Data taken from publication PMC8126837 (Proceedings of the National Academy of Sciences of the …, 2021).

The binders below were run against T1, SARS-CoV-2 receptor-binding domain (RBD), wild type (SARS-CoV-2, UniProt P0DTC2, DyLight 488 (NHS ester, about 1.9 dye/protein) in the FRET assay only) (assay: cell-based or functional assay). Details: not given.

Row | Binder | other [nM]
1 | WNb 67 (VHH) VHH: QVQLQESGGGLVQPGGSLRLSCAVSGFTLDYYAIGWFRQAPGKEREGVSCISSSGGSTNYADSVKGRFTISRDNATNTVYLQMNSLKPEDTAVYYCAAIAATYYGGSYYYQCPHYGMDYWGKGTQVTVSS | ≤ 80
2 | WNb 41 (VHH) VHH: QVQLQESGGGLVQPGGSLRLSCAVSGFTLDYYAIGWFRQAPGKEREGVSCISSSGGSTNYADSVKGRFTISRDNAKNTVYLQMNGLKPEDTAVYYCAAIAATYYSGSYYYQCPHDGMDYWGKGTQVTVSS | ≤ 80
3 | WNb 53 (VHH) VHH: QVQLQESGGGLVQPGGSLRLSCAASGFTFSSYLMGWARQVPGKGLEWVAGIYSDGSTYYADSVKGRFIISRDNAKNTVYLQMNSLKPEDTAVYYCAKDRMEDSTWPERDFGSWGQGTQVTVSS | ≤ 80
4 | WNb 50 (VHH) VHH: QVQLQESGGGLVQPGGSLRLSCAASGFTFSSYAMGWFRQVPGKGLEWVSGIYSDGSTYYADSVKGRFTISRDNAKNTVYLQMNSLKPEDTAVYYCAADRMAGSRWPERDFGSWGQGTQVTVSS | ≤ 80
5 | WNb 19 (VHH) VHH: QVQLQESGGGLVQPGGSLRLSCAASGSMFSINVMGWYRQASGKQRELVAGITRDGATNYSDSVKGRFTISGDNAKNTVYLQMNSLKPEDTAVYYCNTNVDSVWGSRIDYFGQGTQVTVSS | ≤ 80

What follows are binders tested against T1, SARS-CoV-2 receptor-binding domain … (assay: BLI). Details: both partners purified.

Row | Binder | Kd [nM]
6 | WNb 2 (VHH, source: expressed and purified) VHH: QVQLQESGGGLVQPGGSLRLSCAVSGFTLDYYAIGWFRQAPGKEREGVSCISSSGGNTKYADSVKGRFTASRDNAKNTFYLQMNSLKPEDTAVYYCAAIAATYYSGSYYFQCPHDGMDYWGKGTQVTVSS | < 0.5
7 | WNb 7 (VHH) VHH: QVQLQESGGGLVQPGGSLRLSCAAPGFTFSSYAMGWFRQVPGKGLEWVSGIYSDGSTYYADSVKGRFTISRDNAKNTVYLQMNSLKPEDTAVYYCAKDRLEGSSWPERDFGSWGQGTQVTVSS | < 0.5
8 | WNb 15 (VHH) VHH: QVQLQESGGGLVQPGGSLRLSCAASGFTFSSYLMGWFRQVPGKGLEWVSGIYSDGGTYYADSVKGRFTISRDNAKNTVYLQMNSLKPEDTAVYYCATDRMEGSSWPERDFGSWGQGTQVTVSS | < 0.5
9 | WNb 36 (VHH) VHH: QVQLQESGGGLVQPGGSLRLSCAVSGFTLDYYAIGWFRQAPGKEREGVSCISNSGGNTKYADSVKGRFTTSVDNAQNTVYLLMNSLEPEDTAVYYCAAIAATYYSGTYYYQCPHYGMDYWGKGTQVTVSS | < 0.5

What follows are binders tested against T1, SARS-CoV-2 receptor-binding domain … (assay: not given). Details: not given.

Row | Binder | binding result
10 | WNb 68 (VHH) VHH: QVQLQESGGGLVQPGGSLRLSCAASGFTFSSYLMGWARQVPGKGLEWVAGIYSDGSTHYANSVKGRFTISRDNAKNTVYLQMNSLKPEDTAVYYCAKDRMAGSRWPERDFGFWGQGTQVTVSS | binds
11 | WNb 54 (VHH) VHH: QVQLQESGGGLVQPGGSLRLSCAASRFTFSSYAMGWARQVPGKGLEWVSGIYSDGSTYYADSVKGRFIISRDNAKNTVYLQMNSLKPEDTAVYYCAKDRMEGSVWPERDFGSWGQGTQVTVSS | binds
12 | WNb 14 (VHH) VHH: QVQLQESGGGLVQPGGSLRLSCAASGFTFSSYAMGWARQVPGKGLEWVSGIYSDGSTYYADSVKGRFIISRDNAKNTVYLQMNSLKPEDTAVYYCAKDRMEGSSWPERDFGSWGQGTQVTVSS | binds
13 | WNb 22 (VHH) VHH: QVQLQESGGGLVQPGGSLRLSCAASGFTFSSYAMGWARQVPGKGLEWLSGIYSDGSTYYADSVKGRFTISRDNAKNTVYLQMNSLKPEDTAVYYCAKDRMDGSVWPERDFGSWGQGTQVTVSS | binds
14 | WNb 9 (VHH) VHH: QVQLQESGGGLVQPGGSLRLSCAASGFTFSSYAMGWARQVPGKGLEWVSGIYSDGSTYYGDSVKGRFTISRDNAKNTVYLQMNSLKPEDTAVYYCAKDRMAGSSWPERDFGSWGQGTQVTVSS | binds
15 | WNb 6 (VHH) VHH: QVQLQESGGGLVQPGGSLRLSCAASGFTFSSYAMGWFRQVPGKGLEWVSGIYSDGSTYYADSVKGRFTISRDNAKNTLYLQMNSLKPEDTAVYYCAKDRLEGSSRPERDFGSWGQGTQVTVSS | binds
16 | WNb 8 (VHH) VHH: QVQLQESGGGLVQPGGSLRLSCAASGFTFSSYAMGWARQVPGKGLEWVSGIYSDGSTYYADSVKGRFTISRDNAKNTVYLQMNSLKPEDTAVYYCAKDRLESSSWPERDFGSWGQGTQVTVSS | binds
17 | WNb 52 (VHH) VHH: QVQLQESGGGLVQPGGSLRLSCAASGFIFSSYAMGWARQVPGKGLEWVSGIYSDGSTYYADSVKGRFTISRDNAKNTVYLQMNSLKPKDTAVYYCAKDRLEGSTWPERDFGSWGQGTQVTVSS | binds
18 | WNb 35 (VHH) VHH: QVQLQESGGGLVQPGGSLRLSCAASGFTFSSYAMGWARQVPGKGLEWVSGIYSDGTTYYADSVKGRFTISRDNAKNTVYLQMNSLKPEDTAVYYCAADRMEGSTWPERDFGSWGQGTQVTVSS | binds
19 | WNb 13 (VHH) VHH: QVQLQESGGGLVQPGGSLRLSCAASGFTFSSYAMGWFRQVPGKGLEWVSGIYSDGSTYYADSVKGRFTISRDNAKNTVYLQMNSLKPEDTAVYYCATDRMAGSRWPERDFGSWGQGTQVTVSS | binds
20 | WNb 58 (VHH) VHH: QVQLQESGGGLVQPGGSLRLSCAASGFTFSSYAMGWFRQVPGKGLEWVSGIYSDGSTYYADSVKGRFTISRDNAKNTVYLQMNSLKPEDTAVYYCAADRMDGSRWPERDFGSWGQGTQVTVSS | binds
21 | WNb 45 (VHH) VHH: QVQLQESGGGLVQPGGSLRLSCAASGFTFSSYAMGWFRQVPGKGLEWVSGIYSDGSTYYADSVKGRFTISRDNAKNTVYLQMNSLKPEDTAVYYCAADRMEGSSWPERDFGSWGQGTQVTVSS | binds
22 | WNb 60 (VHH) VHH: QVQLQESGGGLVQPGGSLRLSCAASGFTFSSYLMGWFRQVPGKGLEWVAGIYSDGSTYYADSVKGRFTISRDNAKNTVYLQMNSLKPEDTAVYYCATDRMDGSSWPERDFGSWGQGTQVTVSS | binds
23 | WNb 63 (VHH) VHH: QVQLQESGGGLVQPGGSLRLSCAASGFTFRRYLMGWARQVPGKGLEWVSGIYSDGSTYYADSVKGRFTISRDNAKNTVYLQMNSLKPEDTAVYYCAADRMDGSTWPERDFGSWGQGTQVTVSS | binds
24 | WNb 1 (VHH) VHH: QVQLQESGGGLVQAGGSLRLSCAASGRTFDRYAMGWFRQVPGKGLEWVSGIYSDGYTYYADSVKGRFTISRDNAKNTVYLQMNSLKPEDTAVYYCAADRMDGSSWPERDFGSWGQGTQVTVSS | binds
25 | WNb 62 (VHH) VHH: QVQLQESGGGLVQAGGSLRLSCTASRRTFSTCVMGWARQVPGKGLEWVSGIYSDGSTYYADSVKGRFTISRDNAKNTVYLQMNSLKPEDTAVYYCNLDGRYENLEDDYWGQGTQVTVSS | binds
26 | WNb 17 (VHH) VHH: QVQLQESGGGLVQPGGSLRLSCAASGSIFSINVMGWYRQAPGKQRELVAAITSVGSTNYADSVKGRFTISRDNAENTVYLQMNSLKPEDTAVYYCNAVSTFTQAMGGSPEHYWGQGTQVTVSS | binds
27 | WNb 34 (VHH) VHH: QVQLQESGGGLVEAGDSLRLSCAASGRTFSRYAMGWFRQAPGKEREFVAAVSWNGGNTYYADSVKGRFTISRDNAKNTLYLQMNSLKPEDTAVYYCAAGGEPVVVIKLRNANEYDFLGQGTQVTVSS | binds
28 | WNb 24 (VHH) VHH: QVQLQESGGGLVQAGESLRLSCAASGRTFSRYAMGWFRQAPGKEREFVAAVSWNGGNTYYADSVKGRFTISRDNAKNTLYLQMNSLKPEDTAVYYCAAGGEPVVVIKLRNADEYDFLGQGTQVTVSS | binds
29 | WNb 27 (VHH) VHH: QVQLQESGGGLVEAGDSLRLSCAASGRTFSRYAMGWFRQAPGKEREFVAAVSWNGGNTYYADSVKGRFTISRDNAKNTLYLQMNSLKPEDTARYYCVADRGESYYYNRDSEYEWWGQGTQVTVSS | binds
30 | WNb 26 (VHH) VHH: QVQLQESGGGLVQAGGSLRLSCVVSGRTFSPYAMGWFRQAPGKEREFVAGMSWSSGKYYADSVKGRFTISRDGAKNAVYLQMNSLKPEDTAVYYCGAGGEGYSRGRVNLQPDFWGQGTQVTVSS | binds
31 | WNb 25 (VHH) VHH: QVQLQESGGGLVQAGGSLRLSCVTSGLTFSRAAMGWFRQAPEKEREFVASIHWRGLNIAYADSVKGRFTISRDDAKNTLYLQMNSLKTEDTAVYYCAAIPFYYFDHISPFSRAAAYWGQGTQVTVSS | binds
32 | WNb 29 (VHH) VHH: QVQLQESGGGLVQPGGSLRLSCAFSGRTFSMYAMGWFRQAPGKEREFVAVIDDGGGRTYYADSVKGRFTISRDNAKNTVYLQMNSLKTEDTAVYCCAADMGFGYTIWADSYDYWGQGTQVTVSS | binds
